Test results taken from US20220112276A1 (Janssen / Centocor, published 2022).

B1: 01D05R2LS His-tagged VHH (VHH)
VHH: EVQLVESGGGLVQTGGSLRLSCAASGRTFSPYAMGWFRQAPGKEREFVAAIRWSGATTYKYVGDSVQGRFTISRDAAGNTVYLQMNSVKPEDTAVYYCAADRVPKDISIDPRNPKDWDYWGKGTLVTVSS
B2: 01B06R2LS His-tagged VHH (VHH)
VHH: QVQLVESGGGLVQTGGSLRLSCAASGRTFSPYAMGWFRQAPGKEREFVAAIRWSGATTYKYVGDSVQGRFTISRDAAGNTVYLQMNSVKPEDTAVYYCAADRVPKDISIDPRNPKDWDYWGKGTLVTVSS
B3: 03C05R3 His-tagged VHH (VHH)
VHH: EVQLVESGGGLVKAEGSLRLSCVASTSIASINVMGWYRQAPGKERELVARISGGGITHYAESVEGRFTISRDNAKNTVHLQMNGLKPEDTAAYYCKADVFASSGHVTTYWGQGTLVTVSS
B4: 01B05R2 His-tagged VHH (VHH)
VHH: EVQLVESGGGLVQAGGSLRLSCAASGRSLSFDTYAMGWFRQAPGKEREFVASIDWNGGSTYYADSVKGRFTISRDNARNTVNLRMNSLKPDDTAVYYCAAARYYTSGTYFPANYWGQGTQVTVSS
B5: 03C10R3 His-tagged VHH (VHH)
VHH: QVQLVESGGGLVQRGGSLRLSCAASGRSLGFDTYAMGWFRQAPGKEREFVASIDWNGGNTYYADSVKGRFTISRDNAKNTVNLRMNSLKPDDTAAYYCAAARYYTSGTYFPANYWGRGTLVTVSS
B6: 01H05R3 His-tagged VHH (VHH)
VHH: QVQLVESGGGLVQAGGSLRLSCAASGRSLGFDTYGMAWFRQAPGKEREFVASIDWNGGSTYYADSMKGRFTISRDNAKNTVNLRMNSLKPDDTAVYYCAAARYYTSSTYFPANYWGQGTQVTVSS
B7: 03H05R3 His-tagged VHH (VHH)
VHH: QVQLVESGGGLVQAGGSLSLSCAASGRSLSFDTYAMSWFRQAPGKEREFVASIDWNGGSTSYADSMKGRFTISRDNAKNTVNLRIRSLKPDDTAVYFCASARYYIGGTYFPANYWGQGTQVTVSS
B8: 01D08R3 His-tagged VHH (VHH)
VHH: QVQLVESGGGLVQAGDSLRLSCAASGRTSSLYNMGWFRQAPGQEREFVAAIHWGGGRTYYADSVKGRFTISRDNAKNTVYLQMNSLEPGDTANYYCAARRAPELLDDYKQKPEEIGAYHYWGQGTQVTVSS
B9: 03H01R3 His-tagged VHH (VHH)
VHH: EVQLVESGGGLVQAGGSLRLSCAASGRTSSIYNMGWFRQAPGQEREFVAAIHWGGGRTYYADSVKGRFTISRDNAKNTVYLQMNSLEPGDTANYYCAARRAPELLDDYKQKPEEIGTYHYWGQGTQVTVSS
B10: 01B01R3 His-tagged VHH (VHH)
VHH: QVQLVESGGGLVQAGGSLRLSCAASGRTFSSYAMGWFRQAPGKEREFVAVISWSGGSTYYADSVKGRFTISRDNAKNTVYLQMNSLKPEDTAVYYCASGEQPGSNRPYIPEQPIEFMPTDYPSWYDYWGQGTLVTVSS
B11: 01F03R2 His-tagged VHH (VHH)
VHH: QVQLVESGGGLVQAGGSLRLSCAASGRTFSSYAMGWFRQAPGKEREFVAVISWSGGSTYYADSVKGRFTISRDNAKNTVYLQMNSLKPEDTAVYYCASGEQPGSNRPYIPEQPIEFMPTDYPSWYDYWGQGTQVTVSS
B12: 03D12R3 His-tagged VHH (VHH)
VHH: QVQLVESGGGLVQAGGSLRLSCAASGRTFSSYAMGWFRQAPGKEREFAAVITWNGGSTHYADSVKGRFTISRDNAKNTVYLQMNSLKPEDTAVYYCAADPMNSPYWGQGTQVTVSS
B13: 01B02R2L His-tagged VHH (VHH)
VHH: EVQLVESGGGLVQAGGSLKLACAASGLTFSSYRMGWFRQAPGKEREFVAAIDWNGRGTYYRYYADSVKGRFTISRDNAKNTMCLQMNSLKPEDTAVYYSAIDSRTSIDPRTSGHYRYWGQGTLVTVSS
B14: 01F01R2 His-tagged VHH (VHH)
VHH: QVQLVESGGGLVQAGGSLRLSCAASGRTFSSNPMGWFRQAPGKEREFVAAISWSGGGTYYADSVKGRFTISRDNAKNTVTLQMNSLKPEDTAVYYCASRDYSDPISLWVEDREYDYWGQGTQVTVSS
B15: 03D05R3 His-tagged VHH (VHH)
VHH: EVQLVESGGGLVQAGGSLRLSCAASGRTFSSNPMGWFRQAPGKEREFVAAISWSGGGTYYADSVKGRFTISRDNAKNTVTLQMNSLKPEDTAVYYCASRDYSDPISLWVEGREYDYWGQGTLVTVSS
B16: 03B07R3 His-tagged VHH (VHH)
VHH: QVQLVESGGGLVQAGGSLRLSCAASGRTFSSNPMGWFRQAPGKEREFVAAISWSGGGTYYADSVKGRFTISRDNAKNTVTLQMNSLKPEDTAVYYCASRDYSDPISLWVEDREYDYWGQGTLVTVSS
B17: 03G05R3 His-tagged VHH (VHH)
VHH: EVQLVESGGGLVQAGDSLRLSCAASGRALSFNTYAMAWFRQAPGKEREFVASITYNGGSTYYADSVKGRFTVTRDNGKNTVTLRMNSLKPDDTAVYYCASAQYWRSGTSFPANYWGQGTQVTVSS
B18: 01C04R3 His-tagged VHH (VHH)
VHH: QVQLVESGGGLVQAGDSLRLSCAASGRALSFNTYAMAWFRQAPGKEREFVASITYNGGSTYYADSVKGRFTVTRDNGKDTVTLRMNSLKPDDTAVYYCASAQYWRSGTSFPANYWGQGTLVTVSS
B19: 03G07R3 His-tagged VHH (VHH)
VHH: EVQLVESGGGLVQAGDSLRLSCAASGRTLSFDTYAMAWFRQAPGKEREFVASIDYNGGSTDYADSVKGRFTVTRDNAKNTVTLRMNSLKPDDTAVYYCASARYYRSGTSFPVNYWGQGTQVTVSS
B20: 01D06R2 His-tagged VHH (VHH)
VHH: QVQLVESGGGLVQAGDSLRLSCAASGRTLSFDTYAMAWFRQAPGKEREFVASIDWNGVNTYYADSVKGRFTVTRDNTKNTVTLRMNSLKTDDTAVYYCAAAQYYRSGTSFPANSWGQGTQVTVSS
B21: 01F04R3 His-tagged VHH (VHH)
VHH: QVQLVESGGGLVQAGDSLRLSCAASGRALSFNTYAMAWFRQAPGKEREFVASITYNGGSTYYADSVRGRFTVTRDSGKNTVTLRMNSLKPDDTAVYYCASAQYWRSGTSFPANYWGQGTLVTVSS
B22: 01B04R3L His-tagged VHH (VHH)
VHH: EVQLVESGGGLVQAGDSLRLSCAASGRTFTTYVMGWFRQAPGKEREFVATIAWSGSTNYKYYADSVKGRFTISRDNAKNTVYLRMNSLKPEDTAVYYCAASTVLTDPRRLNEYANWGQGTLVTVSS
B23: 03D02R3 His-tagged VHH (VHH)
VHH: EVQLVESGGGLAQAGGSLRLSCTASGTISKIDVMAWYRQTPGNERELVARIFSNDVTHYVDSAKGRFTLSRAQDKNTVDLQMNSLEPDDAAVYYCNAQIWSDMRGRMDTYWGQGTLVTVSS
B24: 03D01R3 His-tagged VHH (VHH)
VHH: EVQLVESGGGLVQPGGSLRLSCAASGFTFRTYYMGWFRQAPGKEREFVGVTRSSDDVTYYADSVKGRFTISRDNAKNTVYLQMSRLKPEDTAVYYCAAKPVPITRYSFPQIGEEYDYWGQGTLVTVSS
B25: 01C09R3 His-tagged VHH (VHH)
VHH: EVQLVESGGGLVQAGGSLRLSCAASGFTFRTYYMGWFRQAPGKEREFVGVTRSSDDVTYYADSVKGRFTISRDNAKNTVYLQMSRLKPEDTAVYYCAAKPVPITRYSFPQIGEEYDYWGQGTLVTVSS
B26: 02B09R3 His-tagged VHH (VHH)
VHH: EVQLVESGGGLVQPGGSLRLSCAASGFTFRTYYMGWFRRAPGKEREFVGVTRSSDDVTYYADSVKGRFTISRDNAKDTVYLQMSRLKPEDTAVYYCAAKPVPITRYSFPQIGEEYDYWGQGTLVTVSS
B27: 01B04R2 His-tagged VHH (VHH)
VHH: EVQLVESGGGLVQAGGSLRLSCAASGRTFTSYTMGWFRQAPGKEREFVAAIKWNGGSTYYADSVKGRFTISRDNAKNTVYLQMNSLKPEDTAVYYCAADGDPYFSPTDGIVWHAPHQSEYDYWGQGTLVTVSS
B28: 03D09R3 His-tagged VHH (VHH)
VHH: QVQLVESGGGLVQAGGSLRLSCAASGRTVSSVAMGWFRQAPGKEREFVATISWTGGSTYYADSVKGRFTISRDNAKNTAYLQMNSLKPEDTAVYYCAAGYPADPIALMTLRYEYDYWGQGTLVTVSS
B29: 03F01R3 His-tagged VHH (VHH)
VHH: QVQLVESGGGLVQAGESLRLSCAASGDVFDIGTMAWYRQPPGKQRELVASITMGGSTDVADSAKGRFTISRDNAKNTVYLHMDSLKPEDTAVYYCNAQFFWPKRHDYWGQGTQVTVSS

Target: T1, recombinant human pIgR (hpIgR) (human, UniProt P01833 19-638, limits assumed)
T1 construct: probably the ECD
T1 sequence (P01833 19-638 limits assumed): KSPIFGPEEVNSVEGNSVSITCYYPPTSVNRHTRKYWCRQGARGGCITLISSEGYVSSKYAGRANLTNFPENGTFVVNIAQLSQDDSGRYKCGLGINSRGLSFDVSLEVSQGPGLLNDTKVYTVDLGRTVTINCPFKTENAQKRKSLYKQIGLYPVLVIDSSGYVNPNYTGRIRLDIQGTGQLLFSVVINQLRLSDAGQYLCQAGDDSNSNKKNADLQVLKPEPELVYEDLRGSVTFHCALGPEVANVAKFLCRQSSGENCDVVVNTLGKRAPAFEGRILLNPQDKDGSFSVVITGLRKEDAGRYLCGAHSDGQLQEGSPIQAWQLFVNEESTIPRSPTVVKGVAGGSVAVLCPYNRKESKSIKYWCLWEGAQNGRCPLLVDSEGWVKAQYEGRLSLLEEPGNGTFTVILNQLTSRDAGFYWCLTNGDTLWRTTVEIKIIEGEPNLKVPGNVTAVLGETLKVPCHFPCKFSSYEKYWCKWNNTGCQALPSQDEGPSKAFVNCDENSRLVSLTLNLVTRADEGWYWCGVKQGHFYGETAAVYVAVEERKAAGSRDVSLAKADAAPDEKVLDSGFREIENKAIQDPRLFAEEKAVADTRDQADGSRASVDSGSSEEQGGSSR
Assay: ELISA, periplasmic VHH, BSA subtracted
Experimental: Initial Library Screening: After each panning round showing enrichment, 94 individual clones were expressed and tested in an off-phage initial screen for specific binding to mpIgR or hpIgR (respectively depending on the antigen used). Screening of monoclones in an off-phage format was performed by transforming the phagemid pool into a non-amber-suppressor strain of E. coli and picking random colonies. The VHH proteins were recovered in the periplasmic fraction by performing osmotic shock. Periplasmic fractions containing His-tagged nanobodies were tested for binding to hpIgR or mpIgR. Bound nanobody was detected with a polyclonal anti-alpaca VHH domain antibody. Each clone was also tested for non-specific binding to BSA in parallel. The ELISA values obtained on BSA were subtracted from the ELISA values obtained on the respective pIgR antigen.
Repeat Testing of Positive Hits: The hits identified in the initial screen of the phage pools were re-tested for binding to either hpIgR or mpIgR. Periplasmic fractions were prepared again by performing osmotic shock. Periplasmic fractions containing His-tagged nanobodies were tested for binding to mpIgR. In this assay, bound nanobody was detected with an anti-VHH antibody. Each clone was also tested for non-specific binding to BSA in parallel. The ELISA values obtained on BSA were subtracted from the ELISA values obtained on the respective pIgR antigen.

Row | Binder | ELISA (OD)
1 | B1 | 2.41 OD
2 | B2 | 1.9 OD
3 | B3 | 0.99 OD
4 | B4 | 2.07 OD
5 | B5 | 1.77 OD
6 | B6 | 1.27 OD
7 | B7 | 0.46 OD
8 | B8 | 2.11 OD
9 | B9 | 2.07 OD
10 | B10 | 1.68 OD
11 | B11 | 2.1 OD
12 | B12 | 2.27 OD
13 | B13 | 1.94 OD
14 | B14 | 2.2 OD
15 | B15 | 2.29 OD
16 | B16 | 2.19 OD
17 | B17 | 1.92 OD
18 | B18 | 2.33 OD
19 | B19 | 1.92 OD
20 | B20 | 0.5 OD
21 | B21 | 1.83 OD
22 | B22 | 2.12 OD
23 | B23 | 2.07 OD
24 | B24 | 1.84 OD
25 | B25 | 1.29 OD
26 | B26 | 1.13 OD
27 | B27 | 2.16 OD
28 | B28 | 1.82 OD
29 | B29 | 1.97 OD
